Experimental data from paper PMC10787639 (Frontiers in Molecular Biosciences, 2023).
Values belong to the molecule of their own block, whether it stands above or below them.

Legend:
[1] = biological target: Chaetomium thermophilum PCNA (proliferating cell nuclear antigen) (Chaetomium thermophilum); test: crystal structure; Ct PCNA (14 mg/mL) mixed with Ct PolD3 PIP peptide (8 mg/mL in dH2O); crystals in 0.1 M phosphate/citrate pH 4.2, 40% PEG 300; space group P1, one PCNA trimer in the asymmetric unit; 2.45 A; the peptide occupies a single PIP binding site, the others occluded by crystal packing
[2] = assay type: physicochemical; conditions: lyophilised peptide; resuspended in DMSO at 8 mg/mL (4.8 mM) instead
Excerpt: A 15mer Ct PolD3 PIP peptide spanning residues 437–451 (sequence: ^437GKGGQGSIMSWFAKK^451) and a 15mer Ct Fen1 peptide spanning residues 339–353 (^339GAQQARIEGFFKVIP^353) were commercially synthesised (GenScript, Piscataway, New Jersey, United States) and obtained in lyophilised form at final purities of 99.4% and 99.1%, respectively.

PolD3/p66 (Homo sapiens) = PolD3/p66 (Homo sapiens) (UniProt Q15054); test: ITC; conditions: cited from earlier work
PolD4 (Homo sapiens) = PolD4 (Homo sapiens) (UniProt Q9HCU8); test: ITC; conditions: cited from earlier work
[3] = biological target: Chaetomium thermophilum PCNA (proliferating cell nuclear antigen) (Chaetomium thermophilum); test: ITC; 420 uM Ct PolD3 peptide injected into 300 uL of 32.7 uM Ct PCNA; 25°C; 50 mM Tris-HCl, 150 mM NaCl, pH 8.0; duplicate; single site model (1 peptide: 1 PCNA protomer)

Chain of PCNA (P12004 whole entry): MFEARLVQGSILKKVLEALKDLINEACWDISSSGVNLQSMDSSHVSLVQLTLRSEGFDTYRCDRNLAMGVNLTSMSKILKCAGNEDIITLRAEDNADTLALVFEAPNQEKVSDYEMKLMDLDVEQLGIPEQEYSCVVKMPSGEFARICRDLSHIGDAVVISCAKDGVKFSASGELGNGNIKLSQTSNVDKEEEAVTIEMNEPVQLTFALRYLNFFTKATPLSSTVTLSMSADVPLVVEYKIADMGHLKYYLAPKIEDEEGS
Chain of UniProt Q9HCU8 (Q9HCU8 whole entry): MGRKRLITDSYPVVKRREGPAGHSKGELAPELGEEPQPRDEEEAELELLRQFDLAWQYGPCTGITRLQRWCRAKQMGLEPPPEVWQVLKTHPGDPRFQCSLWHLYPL
Chain of UniProt Q15054 (Q15054 2-466): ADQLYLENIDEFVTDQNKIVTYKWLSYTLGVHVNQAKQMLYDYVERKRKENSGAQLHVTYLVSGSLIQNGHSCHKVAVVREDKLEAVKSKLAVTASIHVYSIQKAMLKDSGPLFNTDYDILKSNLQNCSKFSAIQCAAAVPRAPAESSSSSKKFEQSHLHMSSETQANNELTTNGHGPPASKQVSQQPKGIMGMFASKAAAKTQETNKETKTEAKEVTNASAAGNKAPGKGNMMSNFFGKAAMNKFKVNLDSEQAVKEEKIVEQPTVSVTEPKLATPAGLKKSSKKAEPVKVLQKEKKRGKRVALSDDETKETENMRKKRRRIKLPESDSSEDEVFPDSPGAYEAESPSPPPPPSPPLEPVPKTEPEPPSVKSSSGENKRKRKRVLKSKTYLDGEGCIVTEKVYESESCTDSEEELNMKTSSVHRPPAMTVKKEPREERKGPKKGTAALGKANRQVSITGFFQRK

stoichiometry N [1]: 3
Molecule: Chaetomium thermophilum PCNA (proliferating cell nuclear antigen) (natural protein)

Molecule: GAQQARIEGFFKVIP [Ct Fen1 PIP peptide, 15mer Ct Fen1 peptide spanning residues 339–353, commercially synthesised (GenScript), purity 99.1%]
solubility in aqueous solution [2]: insoluble in aqueous solution

Molecule: PCNA (from UniProt P12004)
Kd (PolD3/p66 (Homo sapiens)): 16 µM
Kd (PolD4 (Homo sapiens)): 38 µM

Kd [3]: 43.2 µM
stoichiometry N (PIP peptide per PCNA protomer) [3]: 1
Molecule: GKGGQGSIMSWFAKK [Ct PolD3 PIP peptide (15mer, residues 437-451)]
